Source: patent publication US20230381229A1 (ALPINE IMMUNE SCIENCES, INC., published 2023)

T1: human TIGIT (human)
T1 chain: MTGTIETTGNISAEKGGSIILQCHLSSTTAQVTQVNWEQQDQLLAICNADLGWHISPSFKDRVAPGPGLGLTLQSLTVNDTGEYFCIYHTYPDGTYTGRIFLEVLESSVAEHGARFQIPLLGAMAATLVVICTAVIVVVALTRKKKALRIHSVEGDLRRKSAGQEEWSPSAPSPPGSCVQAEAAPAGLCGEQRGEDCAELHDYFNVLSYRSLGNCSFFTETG


Columns and labels:
PD-1 = PD-1 (human); experiment: cell-based or functional assay
human TIGIT = molecular target: T1, human TIGIT; experiment: flow cytometry, transfected HEK293 cells

Chain of PD-1 (human) (chain, as listed by the source): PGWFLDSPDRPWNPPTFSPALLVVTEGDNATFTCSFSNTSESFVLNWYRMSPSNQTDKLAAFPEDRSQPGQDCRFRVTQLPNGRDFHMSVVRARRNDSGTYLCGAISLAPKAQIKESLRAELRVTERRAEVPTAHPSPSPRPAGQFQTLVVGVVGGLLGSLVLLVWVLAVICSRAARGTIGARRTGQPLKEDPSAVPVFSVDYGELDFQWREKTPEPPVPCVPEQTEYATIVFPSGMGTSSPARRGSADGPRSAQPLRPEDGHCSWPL

Row | Binder | IFN gamma levels pg/ml (MLR) (PD-1) | MFI at 25 nM (human TIGIT)
1 | Full length ECD of PD-L2 (ligand) LFTVTVPKELYIIEHGSNVTLECNFDTGSHVNLGAITASLQKVENDTSPHRERATLLEEQLPLGKASFHIPQVQVRDEGQYQCIIIYGVAWDYKYLTLKVKASYRKINTHILKVPETDEVELTCQATGYPLAEVSWPNVSVPANTSHSRTPEGLYQVTSVLRLKPPPGRNFSCVFWNTHVRELTLASIDLQSQMEPRTHPT | 1170 pg/mL | 
2 | variant CD155 IgV-Fc V9L, V11M, P18S, N35S, S54G, Q62K, L79P, L104M, T107M, V115M (Fc fusion) WPPPGTGDLVMQAPTQVSGFLGDSVTLPCYLQVPSMEVTHVSQLTWARHGESGGMAVFHQTKGPSYSESKRLEFVAARPGAELRNASLRMFGLRVEDEGNYTCMFVMFPQGSRSMDIWLRVLGSGGGGSEPKSSDKTHTCPPCPAPEAEGAPSVFLFPPKPKDTLMISRTPEVTCVVVDVSHEDPEVKFNWYVDGVEVHNAKTKPREEQYNSTYRVVSVLTVLHQDWLNGKEYKCKVSNKALPAPIEKTISKAKGQPREPQVYTLPPSRDELTKNQVSLTCLVKGFYPSDIAVEWESNGQPENNYKTTPPVLDSDGSFFLYSKLTVDKSRWQQGNVFSCSVMHEALHNHYTQKSLSLSPGK |  | 3000
